Laboratory results published in patent publication US20100041873A1 (ZymoGenetics, published 2010).
Changes are numbered by the printed parent chain. Several values for one entry are separate records, joined by “and”; a condition that tells them apart may be missing. Identical values can stand only once. No end group written: not given here.

T1: Human IL-21 peptide #2 (N54-C71) (human)
T1 peptide: NDLVPEFLPAPEDVETNC

T2: Human IL-21 peptide #1 (pyr30-K50) (human, N-terminal pyroGlu)
T2 construct: coated on ELISA plates; also called Peptide 1 N-Term
T2 peptide: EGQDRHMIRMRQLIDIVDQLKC

T3: Hu IL-21 Peptide A1750 (conjugated to ovalbumin) (human, also: chemically conjugated to ovalbumin)
T3 construct: also called peptide #2 N54-C71 conjugated to ovalbumin
T3 peptide: NDLVPEFLPAPEDVETNC

T4: Recombinant human IL-4 (human, UniProt P05112 25-153)
T4 construct: also called Hu IL-4
T4 sequence (looked up): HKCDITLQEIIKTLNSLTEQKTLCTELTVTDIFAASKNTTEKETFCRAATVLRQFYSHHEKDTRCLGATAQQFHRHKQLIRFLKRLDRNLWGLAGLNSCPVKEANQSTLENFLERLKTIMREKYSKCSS

T5: Recombinant human IL-7 (human, UniProt P13232 26-177)
T5 construct: also called Hu IL-7
T5 sequence (looked up): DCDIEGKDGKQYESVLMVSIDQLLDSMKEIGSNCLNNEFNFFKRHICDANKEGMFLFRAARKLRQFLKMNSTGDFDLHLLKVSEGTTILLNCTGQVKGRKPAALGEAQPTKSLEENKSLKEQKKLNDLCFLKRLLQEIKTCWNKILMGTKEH

T6: Human IL-21 peptide #3 (N97-C122) (human)
T6 peptide: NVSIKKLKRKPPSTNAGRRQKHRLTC

T7: Hu IL-21 Peptide A1751 (conjugated to ovalbumin) (human, conjugated to ovalbumin)
T7 construct: also called peptide #3 N97-C122 conjugated to ovalbumin
T7 peptide: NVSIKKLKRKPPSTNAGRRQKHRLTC

B1: Human anti-human IL-21 monoclonal antibody 362.78.1.44 (antibody, V domains shown)
VH: QVQLVESGGGVVQPGRSLRLSCAASGFTFSSYGMHWVRQAPGKGLEWVAFIWYDGSDKYYADSVKGRFTISRDNSKNTLYLQMNSLRAEDTAVYYCARDGDSSDWYGDYYFGMDVWGQGTTVTVSS
VL: not shown
notes: Hybridoma antibody, ATCC PTA-8790; also called clone 78
B2: Human anti-human IL-21 monoclonal antibody 362.597.3 (antibody, V domains shown)
VH: B1 VH with S31T
VL: not shown
notes: Hybridoma antibody, ATCC PTA-8786; isotype printed as IgG; also called 362.597.3.15
B3: Human anti-human IL-21 monoclonal antibody 366.552.11 (antibody, V domains shown)
VH: QVQLQESGPGLVKPSETLSLTCTVSGGSISSDFWGWIRQPPGKGLEWIGYISSRGSTNYNPSLKRRVTISVDTSRNQFSLKLSSVTAADTAVYYCARSAGVTDFDFWGQGTLVTVSS
VL: DIQMTQSPSSVSASVGDRVTITCRASQGISSWLAWYQHKPGKAPKLLIYVASSLQSGVPSRFSGSGSGTDFTLTISSLQPEDFATYYCQQANSFPLTFGGGTKVEIK
notes: Hybridoma antibody, ATCC PTA-8787; isotype printed as IgG; also called 366.552.11.31
B4: Human anti-human IL-21 monoclonal antibody 362.75.1.1 (antibody, V domains shown)
VH: QLQLQESGPGLVKPSETLSLTCTVSGGSISSRTYRWGWIRQPPGKELEWIGSIYYRGSTFYNPSLKSRVTVSVDTSKNQFSLKLSSVTAADTAVYYCARQSGYSGYDWFDPWGQGTLVTVSS
VL: EIVLTQSPATLSLSPGERATLSCRASQSVSSFLAWYQQKPGQAPRLLIYDASNRATGIPARFSGSGSGTDFTLTISSLEPEDFAVYYCQQRSNWITFGQGTRLEIK
notes: Hybridoma antibody, ATCC PTA-8791; isotype printed only as IgG
B5: Heterodimeric IL-21 soluble receptor (IL-21R/γc-Fc) (Fc fusion, not shown: a dimerising Fc or GST)
chain 1: not shown
chain 2: LNTTILTPNGNEDTTADFFLTTMPTDSLSVSTLPLPEVQCFVFNVEYMNCTWNSSSEPQPTNLTLHYWYKNSDNDKVQKCSHYLFSEEITSGCQLQKKEIHLYQTFVVQLQDPREPRRQATQMLKLQNLVIPWAPENLTLHKLSESQLELNWNNRFLNHCLEHLVQYRTDWDHSWTEQSVDYRHKFSLPSVDGQKRYTFRVRSRFNPLCGSAQHWSEWSHPIHWGSNTSKENPFLFALEA
B6: Human anti-human IL-21 monoclonal antibody 366.328.10 (antibody, V domains shown)
VH: EVQLVESGGGLVKPGGSLRLSCAASGFIFSSYSMNWVRQAPGKGLEWVSSITSGSYYIHYADSVKGRFTISRDNAKNSLYLQMNSLRAEDTAVYYCVRERGWGYYGMDVWGQGTTVTVSS
VL: AIQLTQSPSSLSASVGDRVTITCRASQDIDSALAWYQQKPGKAPKILIHDASSLESGVPSRFSGSGSGTDFTLTISSLQPEDFATYYCQQFNSYPYTFGQGTKLEIK
notes: Hybridoma antibody, ATCC PTA-8789; isotype printed as IgG

What was measured:
Recombinant human IL-21 [1] = target: T8, Recombinant human IL-21 (human, UniProt Q9HBE4 30-162); experiment: cell-based or functional assay
[2] = target: T1, Human IL-21 peptide #2 (N54-C71); experiment: direct ELISA
Method: (§1) Wells were blocked with 200 μL/well of Blocking Buffer (PBS-Tween plus 1% w/v bovine serum albumin (BSA)) for 1 hour, after which the plates were washed twice with Wash Buffer. Antibody dilutions were prepared in 5% fetal bovine serum (FBS)/Iscove's Modified Dulbecco's Media (IMDM) medium and adjusted to 1 μg/ml. […] Following 1 hour incubation at ambient temperature, the wells were aspirated and the plates washed twice as described above. Horseradish peroxidase (HRP) labeled Goat anti Mouse IgG, Fc specific or Goat anti Rat IgG, Fc specific, or Goat anti Human IgG, Fc specific (Jackson ImmunoResearch Laboratories, West Grove, Pa.) at a dilution of 1:5000 with 5% FBS/IMDM medium was then added to each well, 100 μL/well, and the plates incubated at ambient temperature for 1 hour. After removal of unbound HRP conjugated antibody, the plates were washed five times, 100 μL /well of tetra methyl benzidine (TMB) (BioFX Laboratories, Owings Mills, Md.) added to each well and the plates incubated for 3 minutes at ambient temperature. Color development was stopped by the addition of 100 μL /well of 450 nm TMB Stop Reagent (BioFX Laboratories, Owings Mills, Md.) and the absorbance values of the wells read on a Molecular Devices Spectra MAX 340 instrument at 450 nm.

[3] = target: T2, Human IL-21 peptide #1 (pyr30-K50); experiment: direct ELISA
Method: as §1

[4] = target: T3, Hu IL-21 Peptide A1750 (conjugated to …); experiment: Western blot
Method: (§2) For Western blots, the non-specific sites on the membranes were blocked with a buffer containing 20 mM Tris, pH 7.4, 0.5 mM EDTA, 0.5% IGEPAL CA-630, 150 mM NaCl, 0.25% gelatin, and 1% casein hydrolysate blocking solution (Western Blocking Reagent, Roche Diagnostics, Inc., Basel Switerzerland) (Blocking Buffer). The membranes were then incubated for 2 hrs at room temperature with purified monoclonal antibody (10 ng/ml or 100 ng/ml) in the Blocking Buffer followed by a 2 hr incubation with peroxidase conjugated donkey anti-human IgG (Jackson Laboratories, Bar Harbor, Me.). The membranes were washed 5 times with the Tris/EDTA/IGEPAL/NaCl/gelatin Blocking buffer which lacked the casein hydrolysate and developed with SUPERSIGNAL™ DuraWest Luminol/Enhancer/Peroxidase Solution (Pierce, Rockford, Ill.) for chemoluminescence detection. The blots were visualized using X-ray film based standard methods.

[5] = target: T9, Hu IL-21 Peptide A1752 (conjugated to ovalbumin) (human, conjugated to ovalbumin); experiment: Western blot
T9 construct: also called peptide #4 C125-S153 conjugated to ovalbumin
Method: as §2

Recombinant human IL-21 [6] = target: T8, Recombinant human IL-21; experiment: cell-based or functional assay; remark: listed apart in the source
Recombinant human IL-21 [7] = target: T8, Recombinant human IL-21; experiment: cell-based or functional assay; remark: listed apart in the source
[8] = target: T10, Recombinant cynomolgus IL-21 (cynomolgus monkey, UniProt Q9HBE4 30-162 (human entry), limits assumed); experiment: cell-based or functional assay
Recombinant human IL-21 [9] = target: T8, Recombinant human IL-21; experiment: cell-based or functional assay; remark: listed apart in the source
Recombinant human IL-15 = target: T11, Recombinant human IL-15 (human, UniProt P40933 49-162); experiment: Western blot
T11 construct: also called Hu IL-15

Recombinant human IL-4 = target: T4, Recombinant human IL-4; experiment: Western blot
Recombinant human IL-7 = target: T5, Recombinant human IL-7; experiment: Western blot
Recombinant human IL-2 = target: T12, Recombinant human IL-2 (human, UniProt P60568 21-153); experiment: Western blot
T12 construct: also called Hu IL-2

Recombinant human IL-9 = target: T13, Recombinant human IL-9 (human, UniProt P15248 19-144); experiment: Western blot
T13 construct: also called Hu IL-9

[10] = target: T14, Recombinant mutant human IL-21 (human, UniProt Q9HBE4 30-162, limits assumed); experiment: direct ELISA
T14 construct: also called IL-21 mutant; mutant human IL-21 protein
Method: as §1

[11] = target: T6, Human IL-21 peptide #3 (N97-C122); experiment: direct ELISA
Method: as §1

[12] = target: T7, Hu IL-21 Peptide A1751 (conjugated to …); experiment: Western blot
Method: as §2

[13] = target: T15, Human IL-21 peptide #4 (C125-S153) (human); experiment: direct ELISA
T15 construct: also called Peptide 4 C-Term
Method: as §1

[14] = target: T10, Recombinant cynomolgus IL-21; experiment: Western blot
Method: as §2

Recombinant murine IL-21 [15] = target: T16, Recombinant murine IL-21 (mouse, UniProt Q9ES17 18-146); experiment: cell-based or functional assay
Recombinant rat IL-21 = Recombinant rat IL-21 (rat, UniProt A3QPB9 18-146, limits assumed); experiment: cell-based or functional assay
Recombinant murine IL-21 [16] = target: T16, Recombinant murine IL-21; experiment: Western blot
Method: as §2

T12 sequence (P60568 21-153 limits assumed): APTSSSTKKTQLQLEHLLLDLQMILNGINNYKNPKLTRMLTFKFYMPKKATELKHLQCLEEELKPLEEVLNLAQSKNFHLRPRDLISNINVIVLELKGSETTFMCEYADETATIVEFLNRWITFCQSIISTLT
T10 sequence (Q9HBE4 other isoform, or with tags, fused parts or gaps limits assumed): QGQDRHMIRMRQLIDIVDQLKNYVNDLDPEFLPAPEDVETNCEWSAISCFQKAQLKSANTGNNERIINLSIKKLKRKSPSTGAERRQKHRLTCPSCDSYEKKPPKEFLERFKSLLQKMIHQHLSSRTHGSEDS
T13 sequence (P15248 19-144 limits assumed): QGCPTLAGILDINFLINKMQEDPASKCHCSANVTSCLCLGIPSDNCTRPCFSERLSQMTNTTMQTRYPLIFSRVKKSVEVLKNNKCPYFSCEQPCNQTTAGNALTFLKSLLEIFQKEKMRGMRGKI
T14 sequence (Q9HBE4 other isoform, or with tags, fused parts or gaps mutant limits assumed): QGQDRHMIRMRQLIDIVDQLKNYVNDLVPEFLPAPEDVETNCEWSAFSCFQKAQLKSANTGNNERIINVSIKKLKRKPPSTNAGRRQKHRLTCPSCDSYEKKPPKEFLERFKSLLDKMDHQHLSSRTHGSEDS
T11 sequence (P40933 49-162 limits assumed): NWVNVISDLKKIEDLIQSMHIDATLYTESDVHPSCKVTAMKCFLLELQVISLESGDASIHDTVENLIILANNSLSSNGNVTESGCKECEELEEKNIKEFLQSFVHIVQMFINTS
T9 sequence (peptide, as listed by the source): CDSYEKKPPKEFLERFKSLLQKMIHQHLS
T8 sequence (Q9HBE4 30-162 limits assumed): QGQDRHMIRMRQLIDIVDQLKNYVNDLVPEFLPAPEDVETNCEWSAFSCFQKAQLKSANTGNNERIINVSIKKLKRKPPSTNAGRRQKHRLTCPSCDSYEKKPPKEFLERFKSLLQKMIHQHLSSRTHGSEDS
Recombinant rat IL-21, sequence (A3QPB9 18-146 limits assumed): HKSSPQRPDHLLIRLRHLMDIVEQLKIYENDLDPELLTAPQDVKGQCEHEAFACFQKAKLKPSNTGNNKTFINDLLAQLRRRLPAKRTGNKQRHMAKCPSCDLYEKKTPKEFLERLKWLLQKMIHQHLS

Binder	% IgD-low, CD138+ Plasma Cells, antagonist:ligand 0.16:1 (Recombinant human IL-21 [1]) [%]	% IgD-low, CD138+ Plasma Cells, antagonist:ligand 0.6:1 (Recombinant human IL-21 [1]) [%]	% IgD-low, CD138+ Plasma Cells, antagonist:ligand 2.5:1 (Recombinant human IL-21 [1]) [%]	% IgD-low, CD138+ Plasma Cells, antagonist:ligand 10:1 (Recombinant human IL-21 [1]) [%]	binding result [2]	binding result [3]	binding result [4]	binding result [5]	IC50 (pM), STAT3-phosphorylation assay, Expt #1 (Recombinant human IL-21 [7]) [pM]	Cyno IL-21 IC50 ([cIL-21] = 100 pM), STAT-Luciferase assay [8]	IC50 (nM), B cell proliferation assay (anti-CD40 + 3.21 nM IL-21) (Recombinant human IL-21 [9]) [nM]	binding result (Recombinant human IL-15)	binding result (Recombinant human IL-4)	binding result (Recombinant human IL-7)	binding result (Recombinant human IL-2)	binding result (Recombinant human IL-9)	binding result [10]	binding result [11]	binding result [12]	binding result [13]	also measured
B1	42.8	34.1	15.5	13.7	no binding (tested: 1 ug/ml mAb)	no binding (tested: 1 ug/ml mAb)	no binding (tested: 10 or 100 ng/ml mAb)	no binding (tested: 10 or 100 ng/ml mAb)													
B2					no binding (tested: 1 ug/ml mAb)	no binding (tested: 1 ug/ml mAb)	no binding (tested: 10 or 100 ng/ml mAb)														
B3					no binding (tested: 1 ug/ml mAb)	no binding (tested: 1 ug/ml mAb)	no binding (tested: 10 or 100 ng/ml mAb)		59	23 ng/mL and 156 pM	4.75	no binding	no binding	no binding	no binding	no binding	no binding (tested: 1 ug/ml mAb)	no binding (tested: 1 ug/ml mAb)	no binding (tested: 10 or 100 ng/ml mAb)		IC50 (pM), 24 hr STAT-Luciferase assay, Expt #1 (Recombinant human IL-21 [6]): 2400 pM
B4					no binding (tested: 1 ug/ml mAb)	no binding (tested: 1 ug/ml mAb)	no binding (tested: 10 or 100 ng/ml mAb)	binds				no binding	no binding	no binding	no binding	no binding	no binding (tested: 1 ug/ml mAb)	no binding (tested: 1 ug/ml mAb)	no binding (tested: 10 or 100 ng/ml mAb)	binds	binding result [14]: binds
B5	66.7	54.2	41.7	23.4					25	20 ng/mL and 385 pM	3.5										IC50 (pM), 24 hr STAT-Luciferase assay, Expt #2 (Recombinant human IL-21 [6]): 1830 pM; IC50 (pM), STAT3-phosphorylation assay, Expt #2 (Recombinant human IL-21 [7]): 102 pM; IC50 (pM), STAT3-phosphorylation assay, Expt #3 (96 pM IL-21) (Recombinant human IL-21 [7]): 140 pM; Murine IL-21 IC50 ([mIL-21] = […] nM), STAT-Luciferase assay (Recombinant murine IL-21 [15]): 426 ng/mL and 8.06 nM; Rat IL-21 IC50 ([rIL-21] = 1.08 nM), STAT-Luciferase assay (Recombinant rat IL-21): 708 ng/mL and 13.4 nM
B6	52.1	41.4	20.2	15.4	no binding (tested: 1 ug/ml mAb)	no binding (tested: 1 ug/ml mAb)	no binding (tested: 10 or 100 ng/ml mAb)	no binding (tested: 10 or 100 ng/ml mAb)	210	15 ng/mL and 100 pM	0.71	no binding	no binding	no binding	no binding	no binding	binds	no binding (tested: 1 ug/ml mAb)	no binding (tested: 10 or 100 ng/ml mAb)	no binding (tested: 1 ug/ml mAb)	binding result (Recombinant murine IL-21 [16]): no binding (tested: 10 or 100 ng/ml mAb)
